Measured values taken from publication PMC7241785, “Filaggrin and filaggrin 2 processing are linked together through skin aspartic acid protease activation” (PLoS ONE, 2020).

Target: T1, GST-Flag-SASPase 28 kDa recombinant protein (human, UniProt Q53RT3 85-343)
T1 construct: Skin aspartic acid protease, amino acids 1-259 of SASPase 28, corresponding to amino acids 85-343 of SASPase 37 (Q53RT3); Expression vector pEB9; also called GST-SASPase 28; 28 kDa SASPase; source: E. coli BL21, purified (glutathione resin); not shown: GST, N-terminal, kept; Flag, N-terminal, kept
T1 sequence (looked up): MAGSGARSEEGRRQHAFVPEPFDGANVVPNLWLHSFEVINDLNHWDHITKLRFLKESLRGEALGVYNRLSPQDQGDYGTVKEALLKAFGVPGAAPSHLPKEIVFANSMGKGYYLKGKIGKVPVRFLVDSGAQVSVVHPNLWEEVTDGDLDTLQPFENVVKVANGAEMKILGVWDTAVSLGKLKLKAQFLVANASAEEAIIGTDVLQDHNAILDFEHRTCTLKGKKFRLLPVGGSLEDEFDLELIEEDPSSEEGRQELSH
Assay: SPR; Biacore T200, 25°C, HBS-EP+; goat anti-GST on CM5 captures GST-Flag-SASPase 28 (1 μM, flow cell 2) and GST (flow cell 1); analyte MBP-HA-FLG2S100 at 0-6 μM, control MBP-HA at 3 and 6 μM; 1:1 Langmuir fit
Conditions: both partners purified

B1: MBP-HA FLG2 S100 (aa 2-95) (domain or fragment, human, UniProt Q5D862 2-95, looked up)
chain: TDLLRSVVTVIDVFYKYTKQDGECGTLSKGELKELLEKELHPVLKNPDDPDTVDVIMHMLDRDHDRRLDFTEFLLMIFKLTMACNKVLSKEYCK
notes: Filaggrin 2, amino acids 2-95 containing the S100 domain; Expression vector pEB7; also called MBP-HA FLG2 (aa 2-95); source: E. coli BL21, purified (amylose resin); not shown: MBP, N-terminal, kept; HA, N-terminal, kept
**Q.** What does the source list for B1?
**A.** Kd: 488 nM; koff: 0.00226 s⁻¹; kon: 4630 M⁻¹ s⁻¹
